According to the nanobody polyreactivity screen of Harvey et al. (2022):

assay: yeast display, Sf9 membrane polyspecificity reagent, FACS + sequencing; frameworks hold sequencing errors
In short: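 A nanobody's polyreactivity label depends on the gate it was sorted from. Yeast display cells were stained with 10% biotinylated, detergent-solubilized Sf9 membrane reagent for 1 hour at 4 °C, enriched on streptavidin microbeads and sorted by FACS. The low and high (top ~1%) gates were set on anti-HA fluorescence for expression and streptavidin fluorescence for reagent binding.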

Sequence	polyreactivity (PSR sort gate)
QVQLVETGGGLVHAGGSLRLSCAASGITFTTNTMGWYRQAPGKERELVAAISSTGGNTFYADSVKGRFTISRDNAKNTVYLQMNSLKPEDTAVYYCSYVPSNARGEYDSWGQGTQVTVSS	low polyreactivity
QVQLVETGGGLVKAGGSLRLSCGASGFIFTYNAMGWYRQAPGKERELVAAISGSGGRTYYADSVKGRFTISRDNAKNTVYLQMNSLKPEDTAVYYWNRDPKSLSYGSRGFGYWGLGTQVTVSS	high polyreactivity
QVQLVETGGGLVQAGASLRLSCAASGRTFVYNAMGWYRQAPGKEREFVAAIDGGGDRTFYADSVKGRFTISRDYAKNTVYLQMNSLKPEDTAVYYCARDPGDTYYYSYPEGDYWGQGTQVTVSS	low polyreactivity
QVQLVETGGGLVQAGGRLRLSCAASGSTFGSYAMGWYRQAPGKERELVATITESDGTTYYADSVKGSFTISRDNAKNTVYLQMNSLKREDTAVYYCAANYSGDRKRYWPGDTDDYWGQGTQVTVSS	high polyreactivity
QVQLVETGGGLVQAGGSLGLSCDASGSTFLYVRGWYRQAPGKERELVAAISESGGSPYYADSVKGRFTISRDNAKNTVYLQMNSLKPEDTAVYYCAADLPSGLQYRYYRVDYWGQGTQVTVSS	low polyreactivity
QVQLVETGGGLVQAGGSLLLSSAASGIIIRYYGMGCYGQAPGTERELVARIRWTGGSTYSADSVKGRFTISRDNAKNTVYLQMNSLKPEDTAVYYCAADIWQYSRIANYHPFDYWGQGTQVTVSS	low polyreactivity
QVQLVETGGGLVQAGGSLRLSCAASARTFVNYAMGWYRQAPGKEREFVAAITNGGRTNYADSVKGRFTISRDNAKNTVYLQMNSLKQEDTAVYYCAARYRFGGIRRFNYWGQGTQVTVSS	high polyreactivity
QVQLVETGGGLVQAGGSLRLSCAASGCIITYYAMGWYRPAPGKERELVAAITASGSRTYYADSVKGRFTISRDNAKNTVYLQMNSLKPEDTAVYDCASDNWQWYPSTWYDYWGQGTQVTVSS	high polyreactivity
QVQLVETGGGLVQAGGSLRLSCAASGFIFEFYAMGWYRQAPGKERELVAAITGRGGSTYYADSVKGRFTISRDNAKNTVYLQMNSLKPEDTAVYYCAASIGGQVPGFGWYDYWGQGTQVTVSS	low polyreactivity
QVQLVETGGGLVQAGGSLRLSCAASGFIFGYNAMGWYRQAPGKERELVATISWSGGSTYYADSVKGRFTISRDNAKNTVYLQMNSLKPEDSAVYYCAAEGWERLGWVSWVTVDYWGQGTQVTVSS	low polyreactivity
QVQLVETGGGLVQAGGSLRLSCAASGFTIWKYAMGWYRQAPGKERELVAAISLGGGRTYYADSVKGRFTISRDNANNTVYLQMNSLKPEDTAVYYCNAKIVSSVLYDYWGQGNQVTVSS	low polyreactivity
QVQLVETGGGLVQAGGSLRLSCAASGIIFSRYAMGWYRQAPGIERELVASITGRVGSTYYADSVKGRFTISRDNAKNTVYLQMNRLKPEDTAVYYCAADYGYKFDYWGQGTQVTVSA	low polyreactivity
QVQLVETGGGLVQAGGSLRLSCAASGITFFGYDIGWYRQAPGKERELVAAINSRGGNTYYADSVKGRFTISRDNAKYTVYLQMNSLKPEDTAVYYCAARRYYNRAYGYWGQGTQVTVSS	high polyreactivity
QVQLVETGGGLVQAGGSLRLSCAASGITFVYYAMGWYRQAPGKERELVPSISSADNTNYADSVKGRFTISRDNAKNTVYLQMNSLKPEDTAVYYCAADFCWHLRHDSTGGYWGQGTQVTVSS	low polyreactivity
QVQLVETGGGLVQAGGSLRLSCAASGITSRPYVMGWYRQAPGKERELVAAISLTGGRTYYADSVKGRFTISRDNAKNTVYLQMNSPKPEDTAVYYCAAARSPYKYSYWGQGTQVTVSS	high polyreactivity
QVQLVETGGGLVQAGGSLRLSCAASGLIFVSNAMGWYIQAPGKVRELVAAISKSVGRTYYADSVKGRFTISRDNEKNTVYLQMNSLQPEDTAVYYCAARSRVSPRYDYWGQGTQVTVSS	high polyreactivity
QVQLVETGGGLVQAGGSLRLSCAASGLIFYRYAMGWYRQAPGKERELVAVITRSGGNTNYADSVKGRFTISRDNAKNTVYLQMNSLKPEDTAVYYCATRGIWKKVPYYYWGQGTQVTVSS	high polyreactivity
QVQLVETGGGLVQAGGSLRLSCAASGLTFKYYTKGWYRQAPGKERELVASISWSGGSTYYADSVKGRFTISRDNAKNTVYLQMNSLKPEDTAVYYCARRGYWGPGALGGGGYYWGQGTQVTVSS	high polyreactivity
QVQLVETGGGLVQAGGSLRLSCAASGRIFGPYAMGWYRQAPGKERELVAAITWSGVSTYYADSVKGRFTISRDNAKNSVYLQMNSLKQEDTAVYYCAVDPRGHEGVRYNYWGQGTKVTVSS	low polyreactivity
QVQLVETGGGLVQAGGSLRLSCAASGRIFYLYAMGWYRQAPGKEWELVAAISSSGGSTYYADSVKGRFTISRDNAKTTVYLQMNSLKPEDTAVYYCNARRRTVPYRYDYWGQGTQVTVSS	high polyreactivity
QVQLVETGGGLVQAGGSLRLSCAASGRIFYYYAMGWYRQAPGKERELVAGIDSGDSTNYADSVKGRFTISRDNAKNTVYLQMNSLKPEDTAVYYCAALHYGVYFSYYPYYYWGQGTQVTVSS	low polyreactivity
QVQLVETGGGLVQAGGSLRLSCAASGRTFGHNDMGWSRQAPGKERELVATISSDGSTNYADSVKGRFTISRDNAKNTVYLQMNSLKPEDTAVYYCAKVYQYVEYDYWGQGTQVTVSS	low polyreactivity
QVQLVETGGGLVQAGGSLRLSCAASGRTFKGYAMGWYRQSPGKERELVAGISRGAGRTYYADSVKGRFTISRDNAKNTVYLQMNSLKPEDTEVYYCAAVPSYHSTSPFYYWGQGTQVTVSS	high polyreactivity
QVQLVETGGGLVQAGGSLRLSCAASGRTFLDYTMGWYRQAPGKERELVAAIRTSAGSTYYADSVKGRFTISRDNAKNTVYLQMNSLKPEDTAVYYCAKRQRGYFYEYYLYYSWGQGTQVTVSS	low polyreactivity
QVQLVETGGGLVQAGGSLRLSCAASGRTFYQYAMGWYRQAPGKERELVAGITFRGGSTNYADSVKGRFTISRDNAKNTVYLQMNSLKPEDTAVYYCAATVYGTVYKGRSQYEYGYWGQGTQVTVSS	high polyreactivity
QVQLVETGGGLVQAGGSLRLSCAASGSIFHPYGIGSYRQGPGKERELVAAITSSGGDTYYADSVKGRFTISRDNSKNTVYLQINSLKPEDTAVYYCAATGLPGYYAYDYWGQGTQVTVSS	low polyreactivity
QVQLVETGGGLVQAGGSLRLSCAASGSIFRYNAKGWYRQAPGKEREFVAAITRSGGSTYADSVKGRFTISRDNAKNTVSLQLNSLKPEDTAVYYCAATRLSRYEYWGQGTQVTVSS	low polyreactivity
QVQLVETGGGLVQAGGSLRLSCAASGSIFTNYVMGWYRQAPGKERELVAAINWSGGSTYYADSVKGRFTISRDNAKNTVYLQMNSLKQEDTAVYFCASESFSDGSPYNYWGQGPQVTVSS	low polyreactivity
QVQLVETGGGLVQAGGSLRLSCAASGSIFVYNAMGWYRQAPGKERELVAGITFIGGSTYYADSVKGRFTISRDNAKNTVFLQMNSLKPEDTAVYYCNADVAPGIFYGYDSWGQGTQVTVSS	low polyreactivity
QVQLVETGGGLVQAGGSLRLSCAASGSTFESNAMGWYRQAPGKERELVAAISRGGNTYYADSEKGRFTISRDNAKNTVYLQMNSLKPEDTAVYYCNVDRGNPVPPSEYWGQGTQVTVSS	low polyreactivity
